Results taken from patent publication US5302370A, “Chelating agents for forming complexes with radioactive isotopes, metal complexes thereof and use thereof in diagnosis and therapy” (Institut fur Diagnostikforschung GmbH, priority 1989, dated 1994).

Tests used:
[1] = Bio-distribution of a protein-bonded Tc-99m complex in tumour-bearing hairless mice: organs; type: in vivo, immune-deficient hairless mice; conditions: 24 hours after i.v. 20 μg conjugate labelled with 200 μCi
Protocol: (§1) The monoclonal antibody 17-1A was obtained by methods known in the literature, after application of 10^7 of the corresponding hybridoma cells to the abdominal cavity of a Balb/c-mouse and suction of the ascites fluid after 7-10 days. Purification was brough about likewise by methods known in the literature, by ammonium sulphate precipitation and affinity chromatography over protein A-sepharose. The purified antibody (10 mg/ml) was treated with 25 μg/ml pepsin at pH 3.5 for 2 hours and then isolated by FPLC. Before coupling to the chelating agent, the fragments were dialysed against 0.1M KH2 PO4 /0.1M NaHCO3, pH 8.5, at 4° C. for 12-24 hours. The protein concentration was adjusted to 10 mg/ml. A 5-fold molar excess of the NCS-containing chelating agent [Example 1] was dissolved in a minimum amount of the same buffer and added to the protein solution. In order to form the conjugate, the mixture was incubated at 37° C. for 3 hours. Next, the conjugate was dialysed 24-48 hours against PBS (phosphate-buffered saline) with repeated change of buffer, and the protein concentration was re-adjusted to 10 mg/ml when necessary. Before labelling with Tc-99m, the conjugate could be kept in acid-cleaned glass vessels after sterile filtration at 4° C.
1 mg of the antibody fragment coupled to the chelating agent was labelled with TC-99m by adding 10 mCi pertechnetate solution (=1-2 ml) and 100 μg tin-II chloride in a solution of Na pyrophosphate (1 mg/ml) scavenged with argon or by ligand exchange e.g. by mixing the solution with a commercially obtainable glucoheptonate kit to which pertechnetate had been added.
(§2) The bio-distribution of protein-bonded chelates will be described, using a conjugate of F(ab)2 fragments of the monoclonal antibody 17-1A and the compound [7] prepared in Example 1 as a model. The antibody from which the fragments were obtained recognise an antigen expressed from the human carcinoma cell line "HT-29". […] Isolated cells from both lines were subcutaneously administered to immune-deficient hairless mice. After the tumours had grown to a size of 300-800 mg, the mice were intravenously given 20 μg of the chelate conjugate [Example 17] labelled with 200 μCi. The conjugates were first freed from low-molecular constituents by gel filtration on PD 10 columns manufactured by Messrs. Bio-Rad. The immune reactivity of the conjugates was 70-80% as determined by bonding to an excess of antigen in the cell. The bio-distribution 24 hours after administration of the conjugate was determined by killing the animals, removing the organs and measuring the radioactivity therein.

[2] = tested on: HT-29 human carcinoma (antigen-positive tumour); assay: Bio-distribution of a protein-bonded Tc-99m complex in hairless mice: antigen-positive HT-29 tumour; type: in vivo, human carcinoma in immune-deficient hairless mice
Protocol: as §1, with “In order to form the conjugate, the mixture was incubated at 37° C. for 3 hours. Next, the conjugate was dialysed 24-48 hours against PBS (phosphate-buffered saline) with repeated change of buffer, and the protein concentration was re-adjusted to 10 mg/ml when necessary. Before labelling with Tc-99m, the conjugate could be kept in acid-cleaned glass vessels after sterile filtration at 4° C.” left out
(§3) The bio-distribution of protein-bonded chelates will be described, using a conjugate of F(ab)2 fragments of the monoclonal antibody 17-1A and the compound [7] prepared in Example 1 as a model. […] The immune reactivity of the conjugates was 70-80% as determined by bonding to an excess of antigen in the cell. The bio-distribution 24 hours after administration of the conjugate was determined by killing the animals, removing the organs and measuring the radioactivity therein.

[3] = tested on: antigen expressed from the human carcinoma cell line "HT-29"; assay: Immune reactivity of the conjugates by bonding to an excess of antigen in the cell; type: binding; conditions: after gel filtration on PD 10
Protocol: as §2

[4] = tested on: MX-1 human carcinoma (control, antigen not expressed); assay: Bio-distribution of a protein-bonded Tc-99m complex in hairless mice: antigen-negative MX-1 control tumour; type: in vivo, human carcinoma in immune-deficient hairless mice; conditions: MX-1 tumour (300-800 mg); 24 hours after i.v. 20 μg conjugate labelled with 200 μCi
Protocol: as §1, with “In order to form the conjugate, the mixture was incubated at 37° C. for 3 hours. Next, the conjugate was dialysed 24-48 hours against PBS (phosphate-buffered saline) with repeated change of buffer, and the protein concentration was re-adjusted to 10 mg/ml when necessary. Before labelling with Tc-99m, the conjugate could be kept in acid-cleaned glass vessels after sterile filtration at 4° C.” left out
as §3

B1: conjugate of F(ab)2 fragments of the monoclonal antibody 17-1A and the compound [7]: conjugate of F(ab)2 fragments of the monoclonal antibody 17-1A and the compound [7] prepared in Example 1, … (conjugate, chains of the INN, looked up)
VH: QVQLQQSGAELVRPGTSVKVSCKASGYAFTNYLIEWVKQRPGQGLEWIGVINPGSGGTNYNEKFKGKATLTADKSSSTAYMQLSSLTSDDSAVYFCARDGPWFAYWGQGTLVTVSA
VL: NIVMTQSPKSMSMSVGERVTLTCKASENVVTYVSWYQQKPEQSPKLLIYGASNRYTGVPDRFTGSGSATDFTLTISSVQAEDLADYHCGQGYSYPYTFGGGTKLEIK
modifications: F(ab')2 chelate compound [7], Tc-99m label
% of applied dose per gram of tissue, Blood ([1]; blood): 0.6 % of applied dose per gram of tissue | % of applied dose per gram of tissue, Kidneys ([1]; kidneys): 2.8 % of applied dose per gram of tissue | % of applied dose per gram of tissue, Liver ([1]; liver): 1.2 % of applied dose per gram of tissue | % of applied dose per gram of tissue, Lung ([1]; lung): 0.8 % of applied dose per gram of tissue | % of applied dose per gram of tissue, Muscle ([1]; muscle): 0.1 % of applied dose per gram of tissue | % of applied dose per gram of tissue, Spleen ([1]; spleen): 0.3 % of applied dose per gram of tissue | concentration of the chelate in the antigen-positive tumour ([2]; 24 hours after i.v. administration): marked concentration of the chelate in the antigen-positive tumour | % of applied dose per gram of tissue, HT29 ([2]; HT29 tumour (300-800 mg), 24 hours after i.v. 20 μg conjugate labelled with 200 μCi): 12.1 % of applied dose per gram of tissue | immune reactivity of the conjugates [3]: 70-80% | % of applied dose per gram of tissue, MX-1 [4]: 1.8 % of applied dose per gram of tissue
